The values that follow come from PMC12865133, “Macrocyclic Molecular Glues for the 14‐3‐3/ChREBP Interaction: Affinity and Cooperativity in an Inverse Relationship” (Angewandte Chemie (International Ed. in English), 2025).

“And” between values parts separate entries of the source, which are not always exact repeats. Identical values can stand only once. Bridges are numbered along the chain shown (N, C = ends). Where no end group is shown, it is not given here. [ ]: non-standard residue; d: D form. Phe(4-NO2) = N[C@@H](Cc1ccc([N+](=O)[O-])cc1)C(=O)O; pS = N[C@@H](COP(=O)(O)O)C(=O)O; azidoPhe = azido phenylalanine; β3hS = N[C@@H](CO)CC(=O)O; βAla = NCCC(=O)O

Holding throughout (conditions): both partners purified
Test [1] deals with T1, full-length human 14-3-3β protein with a N-terminal His6 tag (human, UniProt P31946 1-246).
T1 construct: 14-3-3 protein beta/alpha, human, full length; Treated as a dimer in the thermodynamic model (Pp = 14-3-3 dimer); also called Pp (14-3-3 dimer); source: E. coli BL21(DE3), pPROEX HTb, purified (Ni-NTA, dialysis)
T1 sequence (looked up): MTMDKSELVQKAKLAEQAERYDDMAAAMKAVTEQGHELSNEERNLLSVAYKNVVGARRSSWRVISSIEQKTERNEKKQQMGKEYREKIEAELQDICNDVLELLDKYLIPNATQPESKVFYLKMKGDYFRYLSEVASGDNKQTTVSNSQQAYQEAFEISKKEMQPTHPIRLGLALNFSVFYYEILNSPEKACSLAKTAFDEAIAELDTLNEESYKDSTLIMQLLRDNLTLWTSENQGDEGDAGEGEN
As to the kind of experiment: fluorescence polarisation; 2D fluorescence anisotropy titration, replicate 1: 14-3-3β titrated (from 250 µM) to FITC-labeled macrocycle or pepD with varying ChREBP peptide starting at 20 μM; KD I (binary affinity of the macrocycle for a site of the 14-3-3 dimer) fitted by the thermodynamic cooperativity model with KD II fixed at 1.5 µM; 10 mM HEPES pH 7.4, 150 mM NaCl, 0.1% Tween20, 0.1% BSA; room temperature.

In test [2] the target is T1, full-length human 14-3-3β protein with …. In words: fluorescence polarisation; selectivity assay by fluorescence anisotropy: acetylated 14-3-3 client peptides titrated (from 100 μM, 2-fold) to 10 nM FITC-labeled macrocycle F2 or F4 bound to 14-3-3β (7 μM for 2, 2 μM for 4); 10 mM HEPES pH 7.4, 150 mM NaCl, 0.1% Tween20, 0.1% BSA; room temperature. Background: Fluorescence polarisation rises when a labelled molecule tumbles more slowly, as on binding a larger partner.

Test [3] shares this target. In words: fluorescence polarisation; 2D fluorescence anisotropy titration, replicate 2: 14-3-3β titrated (from 250 µM) to FITC-labeled macrocycle or pepD with varying ChREBP peptide starting at 10 μM; KD I (binary affinity of the macrocycle for a site of the 14-3-3 dimer) fitted by the thermodynamic cooperativity model with KD II fixed at 1.5 µM; 10 mM HEPES pH 7.4, 150 mM NaCl, 0.1% Tween20, 0.1% BSA; room temperature.

Test [4] addresses T2, recombinant 14-3-3γ-Twinstrep protein (human, UniProt P61981 1-247).
T2 construct: 14-3-3 protein gamma; The expression of the Twinstrep construct is not described; also called Twinstrep-tagged 14-3-3γ; source: recombinant
T2 sequence (looked up): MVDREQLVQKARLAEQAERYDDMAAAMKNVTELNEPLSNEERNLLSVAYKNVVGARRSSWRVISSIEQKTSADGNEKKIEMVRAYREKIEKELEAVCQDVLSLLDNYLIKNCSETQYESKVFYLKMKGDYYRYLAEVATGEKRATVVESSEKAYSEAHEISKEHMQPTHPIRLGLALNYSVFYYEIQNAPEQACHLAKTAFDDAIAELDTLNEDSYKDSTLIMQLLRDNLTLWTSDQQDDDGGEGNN
As to the kind of experiment: SPR; kinetic fit (1:1 model, global); Twinstrep-tagged 14-3-3γ captured on a Strep-Tactin XT chip (about 1000 RU), 2-fold dilutions of Ac-macrocycle or pepD injected; multi-cycle; 25 °C; 10 mM HEPES pH 7.4, 200 mM NaCl, 50 μM EDTA, 0.005% P20; two replicates and their average. A general note: SPR reads the build-up and loss of mass on a sensor chip optically.

Test [5] has as its target T3, full-length human 14-3-3γ protein with a N-terminal His6 tag (human, UniProt P61981 1-247).
T3 construct: 14-3-3 protein gamma, human, full length; TEV cleavage of the His6 tag is told only for the 14-3-3σ ΔC construct; source: E. coli BL21(DE3), pPROEX HTb, purified (Ni-NTA, dialysis)
T3 sequence (looked up): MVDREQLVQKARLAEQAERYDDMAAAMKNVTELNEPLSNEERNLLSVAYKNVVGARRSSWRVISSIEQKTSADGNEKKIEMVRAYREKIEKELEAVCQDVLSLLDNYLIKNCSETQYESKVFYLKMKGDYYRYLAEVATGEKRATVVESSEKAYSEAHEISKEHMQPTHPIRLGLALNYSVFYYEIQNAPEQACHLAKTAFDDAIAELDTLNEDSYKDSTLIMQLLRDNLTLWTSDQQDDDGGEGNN
As to the kind of experiment: ITC; 200 μM macrocycle or pepD titrated to 20 μM 14-3-3γ; 25 mM HEPES pH 8.0, 100 mM NaCl, 10 mM MgCl2, 500 µM TCEP; 25 °C; fitted with SEDPHAT; mean ± SD, n=3. A general note: In ITC the heat of successive injections is recorded.

Test [6] deals with T2, recombinant 14-3-3γ-Twinstrep protein. In words: SPR; affinity fit (steady-state response against concentration, 1:1 model); Twinstrep-tagged 14-3-3γ captured on a Strep-Tactin XT chip, 2-fold dilutions of Ac-macrocycle or pepD injected; 25 °C; 10 mM HEPES pH 7.4, 200 mM NaCl, 50 μM EDTA, 0.005% P20; two replicates and their average.

B1: fluorescently labeled macrocycle F4 (peptide)
chain: SFSXFKXK
modifications: not fully specified; phosphoserine; Phe(+1) triazole cyclised to the backbone amide nitrogen of Lys(+5) through a linker x = 4 (from 5-hexyn-1-ol); β-homoSer(+2); β-Ala(+3); Nph(+4); β-Ala and a lysine whose side chain carries fluorescein isothiocyanate (FITC) after Lys(+5)
The Kd is the constant that tells how readily two partners part at equilibrium. B1 gave a Kd in test [1] of 5000 nM.

B2: TAZ client peptide (peptide)
peptide: Ac-HVRSH[pS]SPASLQLG
notes: TAZ, 14-3-3 client peptide; No C-terminal group is printed for this peptide; source: synthetic peptide, bought: GenScript Biotech Corp
With B2, the binding result in test [2] is reported as “binds”.

B3: ERRγ client peptide (peptide)
peptide: Ac-KRRRK[pS]CQA-NH2
SMILES: CC(=O)N[C@@H](CCCCN)C(=O)N[C@@H](CCCNC(=N)N)C(=O)N[C@@H](CCCNC(=N)N)C(=O)N[C@@H](CCCNC(=N)N)C(=O)N[C@@H](CCCCN)C(=O)N[C@@H](COP(=O)(O)O)C(=O)N[C@@H](CS)C(=O)N[C@@H](CCC(N)=O)C(=O)N[C@@H](C)C(N)=O
notes: ERRγ (estrogen-related receptor gamma), 14-3-3 client peptide; source: synthetic peptide, bought: GenScript Biotech Corp
In the case of B3, the binding result in test [2] is “binds”.

B4: fluorescently labeled macrocycle F2 (peptide)
chain: SFSXFKXK
modifications: not fully specified; phosphoserine; Phe(+1) triazole cyclised to the backbone amide nitrogen of Lys(+5) through a linker x = 2 (from 3-butyn-1-ol); β-homoSer(+2); β-Ala(+3); Nph(+4); β-Ala and a lysine whose side chain carries fluorescein isothiocyanate (FITC) after Lys(+5)
Take B4: the values for the Kd in test [1] and in test [3] were 12600 nM and 11900 nM, respectively.

B5: macrocycle 3 (peptide)
chain: Ac-[pS][azidoPhe][β3hS][βAla][Phe(4-NO2)]K
modifications: bridge 2-6; not fully specified (bridges); also: triazole of Phe(+1) (from azido phenylalanine) cyclised to backbone amide nitrogen of Lys(+5)
For B5, the Kd in test [4] is 220 nM and 233 nM and 230 nM; in test [5], 167 nM; in test [6], 228 nM and 253 nM and 240 nM.
On to [pS][Phe(4-NO2)][β3hS][βAla][Phe(4-NO2)]K (also: FITC label, site not given here) [FITC-labeled pepD], for which the Kd in test [1] was determined as 8900 nM; in test [3], 7500 nM.

B6: USP8 client peptide (peptide)
peptide: Ac-KLKRSY[pS]SPDITQ-NH2
SMILES: CC[C@H](C)[C@H](NC(=O)[C@H](CC(=O)O)NC(=O)[C@@H]1CCCN1C(=O)[C@H](CO)NC(=O)[C@H](COP(=O)(O)O)NC(=O)[C@H](Cc1ccc(O)cc1)NC(=O)[C@H](CO)NC(=O)[C@H](CCCNC(=N)N)NC(=O)[C@H](CCCCN)NC(=O)[C@H](CC(C)C)NC(=O)[C@H](CCCCN)NC(C)=O)C(=O)N[C@H](C(=O)N[C@@H](CCC(N)=O)C(N)=O)[C@@H](C)O
notes: USP8, 14-3-3 client peptide; source: synthetic peptide, bought: GenScript Biotech Corp
Turning to B6, the binding result in test [2] is reported as “binds”.

B7: B-RAF client peptide (peptide)
peptide: Ac-RDRSS[pS]APNVH-NH2
SMILES: CC(=O)N[C@@H](CCCNC(=N)N)C(=O)N[C@@H](CC(=O)O)C(=O)N[C@@H](CCCNC(=N)N)C(=O)N[C@@H](CO)C(=O)N[C@@H](CO)C(=O)N[C@@H](COP(=O)(O)O)C(=O)N[C@@H](C)C(=O)N1CCC[C@H]1C(=O)N[C@@H](CC(N)=O)C(=O)N[C@H](C(=O)N[C@@H](Cc1c[nH]cn1)C(N)=O)C(C)C
notes: B-RAF, 14-3-3 client peptide; source: synthetic peptide, bought: GenScript Biotech Corp
Regarding B7, in test [2], the binding result is on record as “binds”.

B8: fluorescently labeled macrocycle F1 (peptide)
chain: SFSXFKXK
modifications: not fully specified; phosphoserine; Phe(+1) triazole cyclised to the backbone amide nitrogen of Lys(+5) through a linker x = 1 (from propargyl alcohol); β-homoSer(+2); β-Ala(+3); Nph(+4); β-Ala and a lysine whose side chain carries fluorescein isothiocyanate (FITC) after Lys(+5)
For the molecule B8, the Kd stood at 71000 nM in test [1] and 73000 nM in test [3].
